Molecular target: the molecule itself
Experiment: SEC

B1: SARS-CoV-2 non-structural protein 9 (nsp9) (natural protein)
chain: GAMGNNELSPVALRQMSCAAGTTQTACTDDNALAYYNTTKGGRFVLALLSDLQDLKWARFPKSDGTGTIYTELEPPCRFVTDTPKGPKVKYLYFIKGLNNLNRGMVLGSLAATVRLQ
notes: also called non-structural protein nsp9; sample A; not shown: His6, N-terminal, cleaved; GST, N-terminal, cleaved
stoichiometry N: 2

Reference: paper PMC7985572, “Backbone chemical shift spectral assignments of SARS coronavirus-2 non-structural protein nsp9” (Biomolecular Nmr Assignments, 2021)
